“And” between values parts separate entries of the source, which are not always exact repeats. Identical values can stand only once. Like-named read-outs stand apart in the source and are kept apart here. Positions of bridges follow the written chain, without caps; N, C: chain ends. No end group written: not given here.
Tests used:
[1] = system: human pancreatic adenocarcinoma cell line Capan-1; assay: Cytotoxicity test with BCECF-AM and propydium iodure; assay type: cell-based; settings: PCI 10-75 μg/mL, 24 h
From the text: The cytotoxicity test is based on the use of two fluorophores, BCECF-AM and propydium iodure. The first one is employed to mark the viable cells because it quickly penetrates into the cellular cytoplasm where it is fragmented by the action of the esterases, becoming a fluorescent molecule. These esterases only being active when the cells are alive. Propydium iodine is a derivative of the phenanthrene which specifically joins the polynucleotide structure of nucleic acids intercalating between their pairs of bases. Due to its ionic structure it cannot penetrate into the live cells but it can do so into the dead ones, labeling DNA and RNA. […]
1. The absorbancy of the plate was read using cytofluor. The cytofluor is a fluorometer especially designed for reading the fluorescence of the cells; it is controlled by computer which makes it possible to employ various filter combinations of excitation-emission at the same time. […] These filters allow us to detect the fluorescence of the two reagents employed for the cytotoxicity test such as BCECF-AM and propydium iodide. This first reading corresponds to the self-fluorescence of the cells, which it will later be deducted from the final value of the fluorescence. […]
3. Afterwards, the absorbancy of the plate was read. This measure corresponds to the total fluorescence.
4. […] Thus, we eliminated the fluorescence that had not been incorporated by the cells. […]

[2] = molecular target: EGF receptor (Homo sapiens, UniProt P00533); assay: Kinase activity (phosphorilation) of the EGF receptor, Capan-1 cells; assay type: cell-based; design: endogenous in cells; host or cells: Capan-1 (human pancreatic adenocarcinoma)
Procedure: The material and protocol used have been those described by Donato, N. J. et al. (1989) J. Cell. Biochem., 41: 139-157.
1.c. Wash the cells twice more with tempered PBS and add new serum-free medium. Immediately after, add PCI to the concentration which is going to be studied in the cultures to be treated and incubate for 10 min at 37° C.
2.a. […] Incubate for 1 h in ice.
3.a. Prepare the reaction buffer. Each sample requires 50μL.
3.k. Dry the gel (for at least 3 h) and autoradiograph it for 10 min for the A431 cell line and 2-4 h for the Capan-1 cell line. Count the radiactivity of the filter using a beta counter.

[3] = system: human pancreatic adenocarcinoma cell line Capan-1; settings: 16 days
Procedure: Two kinds of tests were carried out; the first one is the treatment of cells of the human pancreatic adenocarcinoma cell line Capan-1 with wtPCI and tail added to the culture medium in absence of serum.
In a culture plate with 96 wells, 5,000 cells were seed per well, in 24 of them. The cells were placed in full medium (DMEM+10%FBS).
In 6 wells (control): 200 μL of serum-free medium (DMEM-FBS) and free of tail were added.
200 μL of serum-free medium with 50 μg/mL of native PCI were added.
In 6 wells, 200 μL of serum-free medium with 0.128 μg of tail/mL were added.
In 6 wells, serum-free medium with 6.4 μg of tail/mL was added.
The medium contained in the wells was changed every 3-4 days. The old medium was sucked out using a Pasteur pipette.
After 16 days, the cell growth per well was evaluated according to the method detailed in the protocol of Section 4.B.2.a.

[4] = system: human pancreatic adenocarcinoma cell line Capan-1; assay type: cell-based; settings: SFM, 72 h
Procedure: Other kinds of tests were also carried out, the cells growing in serum-free medium as well; these were studies at short periods of time, 72 h, and of competitiveness with a growth factor plus wtPCI, PCIdelYVG or tail. […] The protocol employed was as follows:
1. In a culture plate of 96 wells, in 42 of which 5,000 cells per well were seed. The cells were placed in full medium (DMEM+10%FBS).
2. After 72 h, once the adhesion of the cells to the surface of the well had taken place, as well as their division, the medium was removed from the wells and to eliminate the remainder of the serum, 200 μL of PBS were added to each well.
3. The PBS was removed and 200 μL of DMEM-FBS were added.
4. After 24 h, the medium was removed and the following treatments were applied:
In 6 wells (control): 200 μL of serum-free medium (SFM) were added.
200 μL of SFM plus the indicated concentration of one of the growth factors and wtPCI were added in 6 wells at a final concentration of 50 μg/mL.
In 6 wells, 200 μL of SFM plus the indicated concentration of one of the growth factors and PCIdelYVG were added at a final concentration of 46 μg/mL. […]
4. Cells were kept in an incubator at 37° C., 87% of relative humidity and 10% of CO2.
5. After 72 h, the cellular growth per well was evaluated using the method detailed in the protocol of Section 4.B.2.a.

PCI: potato carboxypeptidase inhibitor, isoform IIa, obtained by recombinant DNA techniques in E. coli (SEQ ID NO.2) (EQHADPICNKPCKTHDDCSGAWFCQACWNSARTCGPYVG; disulfide 12-27, 18-34, 8-24)
cell death (propydium iodure fluorescence) [1]: No significant difference in relation to the control group | viability of the cells (BCECF-AM fluorescence) [1]: no decrease of viability being observed | Kinase activity (%) ([2]; 5 ng/mL EGF + 1 mg/mL PCI): 180% | Kinase activity (%) ([2]; 5 ng/mL EGF + 10 mg/mL PCI): 170% | Kinase activity (%) ([2]; 5 ng/mL EGF + 50 mg/mL PCI): 120% | inhibition of the kinase activity induced by EGF ([2]; PCI concentration of 50 μg/mL): 50% | Kinase activity (%) ([2]; basal, incubation with PCI 50 mg/mL, 10 min, 100% = absence of PCI): 70% and 88% and 90% | Growth (Percentage in relation to the average of the controls) ([3]; 50 mg/mL wtPCI, serum-free medium): 107.6% | growth of Capan-1 cells ([3]; wtPCI in serum-free medium): not altered | Growth (Percentage in relation to the average of the controls) ([4]; EGF 10 ng/mL + 50 mg/mL wtPCI): 30.63% | Growth (Percentage in relation to the average of the controls) ([4]; Insulin 5 mg/mL + 50 mg/mL wtPCI): 44.10%
